Measured values published in IntAct's records for PubMed 22660580.

B1: Interleukin-1 receptor-like 1 (Mus musculus), P14719 (parent)
chain: MIDRQRMGLWALAILTLPMYLTVTEGSKSSWGLENEALIVRCPQRGRSTYPVEWYYSDTNESIPTQKRNRIFVSRDRLKFLPARVEDSGIYACVIRSPNLNKTGYLNVTIHKKPPSCNIPDYLMYSTVRGSDKNFKITCPTIDLYNWTAPVQWFKNCKALQEPRFRAHRSYLFIDNVTHDDEGDYTCQFTHAENGTNYIVTATRSFTVEEKGFSMFPVITNPPYNHTMEVEIGKPASIACSACFGKGSHFLADVLWQINKTVVGNFGEARIQEEEGRNESSSNDMDCLTSVLRITGVTEKDLSLEYDCLALNLHGMIRHTIRLRRKQPIDHRSIYYIVAGCSLLLMFINVLVIVLKVFWIEVALFWRDIVTPYKTRNDGKLYDAYIIYPRVFRGSAAGTHSVEYFVHHTLPDVLENKCGYKLCIYGRDLLPGQDAATVVESSIQNSRRQVFVLAPHMMHSKEFAYEQEIALHSALIQNNSKVILIEMEPLGEASRLQVGDLQDSLQHLVKIQGTIKWREDHVADKQSLSSKFWKHVRYQMPVPERASKTASVAAPLSGKACLDLKHF
partner: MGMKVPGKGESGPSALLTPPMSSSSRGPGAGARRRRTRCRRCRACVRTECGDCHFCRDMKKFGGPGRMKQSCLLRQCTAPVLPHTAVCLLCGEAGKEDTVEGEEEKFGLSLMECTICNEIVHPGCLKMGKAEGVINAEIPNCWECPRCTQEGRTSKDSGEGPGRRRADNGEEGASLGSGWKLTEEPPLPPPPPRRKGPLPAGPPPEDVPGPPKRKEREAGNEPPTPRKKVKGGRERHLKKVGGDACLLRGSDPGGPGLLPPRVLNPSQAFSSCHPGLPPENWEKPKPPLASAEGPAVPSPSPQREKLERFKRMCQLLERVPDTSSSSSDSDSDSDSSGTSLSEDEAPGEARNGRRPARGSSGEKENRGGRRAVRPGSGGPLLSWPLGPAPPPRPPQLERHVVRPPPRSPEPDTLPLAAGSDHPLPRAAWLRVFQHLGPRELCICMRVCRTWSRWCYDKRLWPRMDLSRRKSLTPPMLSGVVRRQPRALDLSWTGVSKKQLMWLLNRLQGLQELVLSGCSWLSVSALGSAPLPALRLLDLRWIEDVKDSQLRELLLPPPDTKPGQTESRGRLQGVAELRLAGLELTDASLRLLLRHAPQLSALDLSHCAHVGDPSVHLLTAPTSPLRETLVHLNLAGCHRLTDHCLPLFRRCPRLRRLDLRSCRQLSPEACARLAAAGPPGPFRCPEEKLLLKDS

Variants of: B1
Conditions: with fxl19_human FBXL19, Q6PCT2

effect of a mutation on the interaction	Variant
decreasing interaction	S442A
